Key:
Format in all cases: in vivo
mice = assay: Example 42B: EPO mRNA dose response IM in mice (Table 68); conditions: Dose Vol. (μl/mouse) 100, 13 hours
Protocol: The mice were bled at 13 hours after the injection to determine the concentration of the human polypeptide in serum in pg/mL.

Sprague-Dawley rats = assay: Example 35: duration after IM EPO mRNA in rats, serum EPO (Table 61); conditions: rats IM 100 μg, 24, 48 and 72 hour
Protocol: The rats were bled 2, 6, 12, 24, 48 and 72 hours after the intramuscular injection to determine the concentration of human EPO in serum at a given time.

[1] = system: non-human primates (cynomolgus monkey); assay: Example 21: LNP IV in non-human primates, serum EPO/G-CSF ELISA (Table 37); conditions: for Average Serum Concentration / Female NHP Serum Concentration / Male NHP Serum Concentration: 0.05 mg/kg IV
Protocol: (§1) Formulations, listed in Table 33, were characterized by particle size, zeta potential, and encapsulation.
LNP formulations, shown in Table 33 (above), were administered to non-human primates (NHP) (cynomolgus monkey) (n=2) as a bolus intravenous injection (IV) over approximately 30 seconds using a hypodermic needle, which may be attached to a syringe/abbocath or butterfly if needed. The NHP were administered a single modified mRNA IV dose of 0.05 mg/kg of EPO or G-CSF or 0.005 mg/kg of EPO in a dose volume of 0.5 mL/kg. The NHPs were bled 5-6 days before dosing with the modified mRNA LNP formulations to determine protein expression in the serum and a baseline complete blood count. After administration with the modified mRNA formulation the NHP were bled at 8, 24, 48 and 72 hours to determined protein expression. At 24 and 72 hours after administration the complete blood count of the NHP was also determined. Protein expression of G-CSF and EPO was determined by ELISA. Urine from the NHPs was collected over the course of the entire experiment and analyzed to evaluate clinical safety. Samples were collected from the NHPs after they were administered with G-CSF or EPO modified mRNA formulations to determine protein expression using ELISA. Clinical chemistry, hematology, urinalysis and cytokines of the non-human primates were also analyzed.

rats = assay: Example 17: LNP IV, IM, SC in rats, serum EPO/G-CSF ELISA (Table 34); conditions: for EPO / G-CSF Serum Concentration: LNP 0.05 mg/kg
Protocol: as §1
LNP formulations, shown in Table 33 (above), were administered to rats (n=5) intravenously (IV), intramuscularly (IM) or subcutaneously (SC) at a single modified mRNA dose of 0.05 mg/kg. A control group of rats (n=4) was untreated. […] The rats administered EPO modified mRNA intravenously were also bled at 7 days.

[2] = system: non-human primates (cynomolgus monkey); assay: Example 22: NHP serum chemistry ALT and AST (Tables 45, 46)
[3] = 0.005 mg/kg, 2 days, Female NHP
[4] = 0.005 mg/kg, 4 days, Female NHP
[5] = 0.005 mg/kg, 7 days, Female NHP
[6] = 0.005 mg/kg, 14 days, Female NHP
[7] = 0.005 mg/kg, Pre-dose, Female NHP
[8] = 0.005 mg/kg, Pre-dose, Male NHP
[9] = 0.05 mg/kg, 14 days, Female NHP
[10] = 0.05 mg/kg, Pre-dose, Female NHP
[11] = 0.5 mg/kg, Pre-dose, Female NHP

Luciferase: luciferase mRNA, SEQ ID NO: 14, Cap1, fully modified with 5-methylcytosine and pseudouridine
Average Protein Product, serum (mice): 0.0 pg/mL | human EPO in serum, Avg. (Sprague-Dawley rats): 37.2 pg/mL | human EPO in serum, Geometric-mean (Sprague-Dawley rats): 29.2 pg/mL

B1: G-CSF: modified mRNA encoding human G-CSF, SEQ ID NO: 4, Cap1, fully modified with 5-methylcytosine and pseudouridine; LNP-formulated in Examples 16-22 (nucleic acid)
chain: GGGAAAUAAGAGAGAAAAGAAGAGUAAGAAGAAAUAUAAGAGCCACCAUGGCCGGUCCCGCGACCCAAAGCCCCAUGAAACUUAUGGCCCUGCAGUUGCUGCUUUGGCACUCGGCCCUCUGGACAGUCCAAGAAGCGACUCCUCUCGGACCUGCCUCAUCGUUGCCGCAGUCAUUCCUUUUGAAGUGUCUGGAGCAGGUGCGAAAGAUUCAGGGCGAUGGAGCCGCACUCCAAGAGAAGCUCUGCGCGACAUACAAACUUUGCCAUCCCGAGGAGCUCGUACUGCUCGGGCACAGCUUGGGGAUUCCCUGGGCUCCUCUCUCGUCCUGUCCGUCGCAGGCUUUGCAGUUGGCAGGGUGCCUUUCCCAGCUCCACUCCGGUUUGUUCUUGUAUCAGGGACUGCUGCAAGCCCUUGAGGGAAUCUCGCCAGAAUUGGGCCCGACGCUGGACACGUUGCAGCUCGACGUGGCGGAUUUCGCAACAACCAUCUGGCAGCAGAUGGAGGAACUGGGGAUGGCACCCGCGCUGCAGCCCACGCAGGGGGCAAUGCCGGCCUUUGCGUCCGCGUUUCAGCGCAGGGCGGGUGGAGUCCUCGUAGCGAGCCACCUUCAAUCAUUUUUGGAAGUCUCGUACCGGGUGCUGAGACAUCUUGCGCAGCCGUGAAGCGCUGCCUUCUGCGGGGCUUGCCUUCUGGCCAUGCCCUUCUUCUCUCCCUUGCACCUGUACCUCUUGGUCUUUGAAUAAAGCCUGAGUAGGAAG
modifications: Cap1, 5-methylcytosine, pseudouridine
Average Serum Concentration ([1]; 8 hours): 2,506 pg/ml | Female NHP Serum Concentration ([1]; 8 hours): 3289 pg/mL | Male NHP Serum Concentration ([1]; 8 hours): 1722 pg/mL | Average Serum Concentration ([1]; 24 hours): 515 pg/mL | Female NHP Serum Concentration ([1]; 24 hours): 722 pg/mL | Male NHP Serum Concentration ([1]; 24 hours): 307 pg/mL | Average Serum Concentration ([1]; 48 hours): 0 pg/mL | Female NHP Serum Concentration ([1]; 48 hours): 0 pg/mL | Male NHP Serum Concentration ([1]; 48 hours): 0 pg/mL | Average Serum Concentration ([1]; 72 hours): 0 pg/mL | Female NHP Serum Concentration ([1]; 72 hours): 0 pg/mL | Male NHP Serum Concentration ([1]; 72 hours): 0 pg/mL | Average Serum Concentration ([1]; Pre-bleed): 0 pg/mL | Female NHP Serum Concentration ([1]; Pre-bleed): 0 pg/mL | Male NHP Serum Concentration ([1]; Pre-bleed): 0 pg/mL | protein expression detectable out to ([1]; NHP IV, 0.05 mg/kg): 24 h | protein expression detectable out to (rats; IV): 7 days | EPO / G-CSF Serum Concentration (rats; IM, 2 hours): 1620.4 pg/mL | EPO / G-CSF Serum Concentration (rats; IM, 8 hours): 7910.4 pg/mL | EPO / G-CSF Serum Concentration (rats; IM, 24 hours): 893.3 pg/mL | EPO / G-CSF Serum Concentration (rats; IM, 48 hours): OSC | EPO / G-CSF Serum Concentration (rats; IM, 5 days): OSC | EPO / G-CSF Serum Concentration (rats; IV, 2 hours): 31,331.9 pg/ml | EPO / G-CSF Serum Concentration (rats; IV, 8 hours): 70,532.4 pg/ml | EPO / G-CSF Serum Concentration (rats; IV, 24 hours): 5,738.6 pg/ml | EPO / G-CSF Serum Concentration (rats; IV, 48 hours): 233.8 pg/mL | EPO / G-CSF Serum Concentration (rats; IV, 5 days): 60.4 pg/mL | EPO / G-CSF Serum Concentration (rats; SC, 2 hours): 80.3 pg/mL | EPO / G-CSF Serum Concentration (rats; SC, 8 hours): 164.2 pg/mL | EPO / G-CSF Serum Concentration (rats; SC, 24 hours): OSC | EPO / G-CSF Serum Concentration (rats; SC, 48 hours): OSC | EPO / G-CSF Serum Concentration (rats; SC, 5 days): OSC | protein expression detectable to (rats; subcutaneous and intramuscular): at least 8 hours | ALT [2, 3]: 32 U/L | AST [2, 3]: 34 U/L | ALT ([2]; 0.005 mg/kg, 2 days, Male NHP): 39 U/L | AST ([2]; 0.005 mg/kg, 2 days, Male NHP): 70 U/L | ALT [2, 4]: 58 U/L | AST [2, 4]: 36 U/L | ALT ([2]; 0.005 mg/kg, 4 days, Male NHP): 48 U/L | AST ([2]; 0.005 mg/kg, 4 days, Male NHP): 39 U/L | ALT [2, 5]: 55 U/L | AST [2, 5]: 31 U/L | ALT ([2]; 0.005 mg/kg, 7 days, Male NHP): 29 U/L | AST ([2]; 0.005 mg/kg, 7 days, Male NHP): 28 U/L | ALT [2, 6]: 46 U/L | AST [2, 6]: 20 U/L | ALT ([2]; 0.005 mg/kg, 14 days, Male NHP): 44 U/L | AST ([2]; 0.005 mg/kg, 14 days, Male NHP): 39 U/L | ALT [2, 7]: 51 U/L | AST [2, 7]: 54 U/L | ALT [2, 8]: 43 U/L | AST [2, 8]: 35 U/L | ALT ([2]; 0.05 mg/kg, 2 days, Female NHP): 39 U/L | AST ([2]; 0.05 mg/kg, 2 days, Female NHP): 34 U/L | ALT ([2]; 0.05 mg/kg, 2 days, Male NHP): 82 U/L | AST ([2]; 0.05 mg/kg, 2 days, Male NHP): 95 U/L | ALT ([2]; 0.05 mg/kg, 4 days, Female NHP): 56 U/L | AST ([2]; 0.05 mg/kg, 4 days, Female NHP): 42 U/L | ALT ([2]; 0.05 mg/kg, 4 days, Male NHP): 88 U/L | AST ([2]; 0.05 mg/kg, 4 days, Male NHP): 69 U/L | ALT ([2]; 0.05 mg/kg, 7 days, Female NHP): 73 U/L | AST ([2]; 0.05 mg/kg, 7 days, Female NHP): 52 U/L | ALT ([2]; 0.05 mg/kg, 7 days, Male NHP): 73 U/L | AST ([2]; 0.05 mg/kg, 7 days, Male NHP): 62 U/L | ALT [2, 9]: 31 U/L | AST [2, 9]: 20 U/L | ALT ([2]; 0.05 mg/kg, 14 days, Male NHP): 50 U/L | AST ([2]; 0.05 mg/kg, 14 days, Male NHP): 59 U/L | ALT [2, 10]: 53 U/L | AST [2, 10]: 33 U/L | ALT ([2]; 0.05 mg/kg, Pre-dose, Male NHP): 58 U/L | AST ([2]; 0.05 mg/kg, Pre-dose, Male NHP): 99 U/L | ALT ([2]; 0.5 mg/kg, 2 days, Female NHP): 209 U/L | AST ([2]; 0.5 mg/kg, 2 days, Female NHP): 294 U/L | ALT ([2]; 0.5 mg/kg, 2 days, Male NHP): 63 U/L | AST ([2]; 0.5 mg/kg, 2 days, Male NHP): 196 U/L | ALT ([2]; 0.5 mg/kg, 4 days, Female NHP): 98 U/L | AST ([2]; 0.5 mg/kg, 4 days, Female NHP): 63 U/L | ALT ([2]; 0.5 mg/kg, 4 days, Male NHP): 70 U/L | AST ([2]; 0.5 mg/kg, 4 days, Male NHP): 67 U/L | ALT ([2]; 0.5 mg/kg, 7 days, Female NHP): 149 U/L | AST ([2]; 0.5 mg/kg, 7 days, Female NHP): 68 U/L | ALT ([2]; 0.5 mg/kg, 7 days, Male NHP): 41 U/L | AST ([2]; 0.5 mg/kg, 7 days, Male NHP): 53 U/L | ALT ([2]; 0.5 mg/kg, 14 days, Female NHP): 145 U/L | AST ([2]; 0.5 mg/kg, 14 days, Female NHP): 67 U/L | ALT ([2]; 0.5 mg/kg, 14 days, Male NHP): 43 U/L | AST ([2]; 0.5 mg/kg, 14 days, Male NHP): 47 U/L | ALT [2, 11]: 216 U/L | AST [2, 11]: 47 U/L | ALT ([2]; 0.5 mg/kg, Pre-dose, Male NHP): 29 U/L | AST ([2]; 0.5 mg/kg, Pre-dose, Male NHP): 32 U/L

— US20190142971A1, “FORMULATION AND DELIVERY OF MODIFIED NUCLEOSIDE, NUCLEOTIDE, AND NUCLEIC ACID COMPOSITIONS” (ModernaTX, Inc., priority 2013, published 2019)
